For one substance, Kd results are on record in paper PMC2196875.

The experiment deals with titin fragment Z9-Z10 as used in isothermal titration calorimetry (human). As to the kind of experiment: ITC. (In general: Isothermal titration calorimetry measures the heat released or taken up as one component is titrated into another.)

Take “untagged obscurin fragment Ob48-Ob49 (domain or fragment)”: the Kd lay in the range of 100 to 200 nM.

By Kd is commonly meant the concentration at which binding is half-saturated.
